Paper PMC9652086

Molecular target: h4#147D, humanized IgG4-formatted anti-CD147 antibody (IgG4Pro, heavy chain S228P) (human)
Test: SPR; Biacore T200; purified h4#147D captured on the sensor chip with a human antibody capture kit, recombinant human or monkey CD147 injected; 1:1 fitting model

Sequence of h4#147D, humanized IgG4-formatted anti-CD147 antibody (IgG4Pro, heavy chain S228P) (human) (heavy, as listed by the source, chain 1 of 2): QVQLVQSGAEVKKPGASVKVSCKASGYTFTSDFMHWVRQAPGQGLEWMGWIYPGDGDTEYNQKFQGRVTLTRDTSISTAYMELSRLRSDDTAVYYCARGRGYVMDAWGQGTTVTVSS
Sequence of h4#147D, humanized IgG4-formatted anti-CD147 antibody (IgG4Pro, heavy chain S228P) (human) (light, as listed by the source, chain 2 of 2): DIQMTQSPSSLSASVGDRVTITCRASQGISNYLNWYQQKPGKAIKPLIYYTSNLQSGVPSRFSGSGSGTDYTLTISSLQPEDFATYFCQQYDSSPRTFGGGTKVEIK

## recombinant monkey CD147 protein (natural protein)
  Kd: 5.8 nM
